{
  "source": "paper PMC2173332",
  "data": [
    {"target": "acyl-CoA oxidase isoform Aox1p (Yarrowia lipolytica)", "assay": "co-IP", "values": [
      {"substance": "acyl-CoA oxidase isoform Aox2p (enzyme)", "stoichiometry N": 1},
      {"substance": "acyl-CoA oxidase isoform Aox3p (enzyme)", "stoichiometry N": 1},
      {"substance": "acyl-CoA oxidase isoform Aox4p (enzyme)", "stoichiometry N": 1},
      {"substance": "acyl-CoA oxidase isoform Aox5p (enzyme)", "stoichiometry N": 1}
    ]},
    {"target": "acyl-CoA oxidase isoform Aox1p (Yarrowia lipolytica)", "assay": "co-IP", "remark": "another data set of the same source", "values": [
      {"substance": "acyl-CoA oxidase isoform Aox2p (enzyme)", "stoichiometry N": 1},
      {"substance": "acyl-CoA oxidase isoform Aox3p (enzyme)", "stoichiometry N": 1},
      {"substance": "acyl-CoA oxidase isoform Aox4p (enzyme)", "stoichiometry N": 1},
      {"substance": "acyl-CoA oxidase isoform Aox5p (enzyme)", "stoichiometry N": 1}
    ]}
  ]
}
